One block for each molecule: values may come before it.
Target: T1, human CXCR4-enriched lipoparticles (Homo sapiens, UniProt P61073)
T1 construct: purchased Integral Molecular, Philadelphia Pa; LEV101
Test: Biosensor affinity measurement of Fabs on CXCR4-enriched lipoparticles
Assay type: binding
Conditions: Fab; kinetic titration
Protocol: One way of determining binding affinity of antibodies to CXCR4 is by measuring binding affinity of monofunctional Fab fragments of the antibody. To obtain monofunctional Fab fragments, an antibody (for example, IgG) can be cleaved with papain or expressed recombinantly. […] Biotinylated WGA can be coated on the SA chip to facilitate capturing Lipoparticles containing CXCR4 proteins. […] J. Mol. Recognit. 12, 279-284 (1999).
The concentrations of the Fab proteins are determined by ELISA and/or SDS-PAGE electrophoresis using a Fab of known concentration (as determined by amino acid analysis) as a standard. Kinetic association rates (kon) and dissociation rates (koff) are obtained simultaneously by fitting the data globally to a 1:1 Langmuir binding model (Karlsson, R. Roos, H. Fagerstam, L. Petersson, B. (1994). Methods Enzymology 6. 99-110) using the BIAevaluation program. Equilibrium dissociation constant (KD) values are calculated as koff/kon.
The binding affinity of each Fab was determined using human CXCR4-enriched lipoparticles (LEV101, Integral Molecular, Philadelphia Pa.). Biotinylated WGA (Sigma Aldrich, St. Louis Mo.)) can be coated on the SA chip to facilitate capturing lipoparticles containing CXCR4 proteins. […] J. Mol. Recognit. 12, 279-284 (1999).

T1 sequence (P61073 whole entry): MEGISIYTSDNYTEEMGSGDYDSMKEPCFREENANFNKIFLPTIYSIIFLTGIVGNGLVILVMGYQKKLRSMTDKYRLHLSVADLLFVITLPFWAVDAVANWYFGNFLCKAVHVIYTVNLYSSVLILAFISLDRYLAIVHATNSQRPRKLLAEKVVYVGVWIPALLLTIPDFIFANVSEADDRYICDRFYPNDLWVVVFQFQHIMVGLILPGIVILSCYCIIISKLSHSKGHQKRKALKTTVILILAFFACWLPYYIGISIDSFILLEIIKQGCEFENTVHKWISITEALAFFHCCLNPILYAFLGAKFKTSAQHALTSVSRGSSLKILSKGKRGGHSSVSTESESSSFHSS

Ka (1/MS): 1.29E+06 1/MS
Kd: 0.000418 s⁻¹
B3: h3G10.2.37 VH/h3G10.A58A VL: Fab; VH SEQ ID NO:35, VL SEQ ID NO:57 (antibody, V domains shown)
VH: EVQLVESGGGLVQPGGSLRLSCAASGFTFSDYYMSWVRQAPGKGLEWVGFIRHKANFYTREYSTSVKGRFTISRDDSKNSLYLQMNSLKTEDTAVYYCARDLPGFAYWGQGTLVTVSS
VL: DIVMTQSPDSLAVSLGERATINCKSSQSLFNSHTRKNYLAWYQQKPGQPPKLLIYWASARGSGVPDRFSGSGSGTDFTLTISSLQAEDVAVYYCKQSFRLRTFGGGTKVEIK
modifications: Fab

Ka (1/MS): 1.60E+06 1/MS
Kd: 0.00063 s⁻¹
B4: h3G10.A57 VH/h3G10.A58A VL: Fab; VH SEQ ID NO:23, VL SEQ ID NO:57 (antibody, V domains shown)
VH: EVQLVESGGGLVQPGGSLRLSCAASGFTFSDYYMSWVRQAPGKGLEWVGFIRHKANFYTTEYSTSVKGRFTISRDDSKNSLYLQMNSLKTEDTAVYYCARDLPGFAYWGQGTLVTVSS
VL: DIVMTQSPDSLAVSLGERATINCKSSQSLFNSHTRKNYLAWYQQKPGQPPKLLIYWASARGSGVPDRFSGSGSGTDFTLTISSLQAEDVAVYYCKQSFRLRTFGGGTKVEIK
modifications: Fab

Ka (1/MS): 6.88E+05 1/MS
Kd: 0.000515 s⁻¹
B6: h3G10.A57 VH/h3G10.A58B VL: Fab; VH SEQ ID NO:23, VL SEQ ID NO:73 (antibody, V domains shown)
VH: EVQLVESGGGLVQPGGSLRLSCAASGFTFSDYYMSWVRQAPGKGLEWVGFIRHKANFYTTEYSTSVKGRFTISRDDSKNSLYLQMNSLKTEDTAVYYCARDLPGFAYWGQGTLVTVSS
VL: DIVMTQSPDSLAVSLGERATINCKSSQSLFNSHTRKNYLAWYQQKPGQPPKLLIYWASARGSGVPDRFSGSGSGTDFTLTISSLQAEDVAVYYCKQSFNLRTFGGGTKVEIK
modifications: Fab

More lines, now with the values behind:

B1: h3G10.1.91 VH/h3G10.2.72 VL: Fab; VH SEQ ID NO:33, VL SEQ ID NO:49 (antibody, V domains shown)
VH: EVQLVESGGGLVQPGGSLRLSCAASGFTFSDYYMSWVRQAPGKGLEWVGFIRHKANFETTEYSTSVKGRFTISRDDSKNSLYLQMNSLKTEDTAVYYCARDLPGFAYWGQGTLVTVSS
VL: DIVMTQSPDSLAVSLGERATINCKSSQSLFNSRTRKNYLAWYQQKPGQPPKLLIYWASARESGVPDRFSGSGSGTDFTLTISSLQAEDVAVYYCKQSFRLRTFGGGTKVEIK
modifications: Fab
Ka (1/MS): 1.50E+06 1/MS
Kd: 0.00049 s⁻¹

B2: h3G10.2.37 VH/h3G10.2.72 VL: Fab; VH SEQ ID NO:35, VL SEQ ID NO:49 (antibody, V domains shown)
VH: EVQLVESGGGLVQPGGSLRLSCAASGFTFSDYYMSWVRQAPGKGLEWVGFIRHKANFYTREYSTSVKGRFTISRDDSKNSLYLQMNSLKTEDTAVYYCARDLPGFAYWGQGTLVTVSS
VL: DIVMTQSPDSLAVSLGERATINCKSSQSLFNSRTRKNYLAWYQQKPGQPPKLLIYWASARESGVPDRFSGSGSGTDFTLTISSLQAEDVAVYYCKQSFRLRTFGGGTKVEIK
modifications: Fab
Ka (1/MS): 2.30E+06 1/MS
Kd: 0.0008 s⁻¹

B5: h3G10.1.91 VH/h3G10.A58A VL: Fab; VH SEQ ID NO:33, VL SEQ ID NO:57 (antibody, V domains shown)
VH: EVQLVESGGGLVQPGGSLRLSCAASGFTFSDYYMSWVRQAPGKGLEWVGFIRHKANFETTEYSTSVKGRFTISRDDSKNSLYLQMNSLKTEDTAVYYCARDLPGFAYWGQGTLVTVSS
VL: DIVMTQSPDSLAVSLGERATINCKSSQSLFNSHTRKNYLAWYQQKPGQPPKLLIYWASARGSGVPDRFSGSGSGTDFTLTISSLQAEDVAVYYCKQSFRLRTFGGGTKVEIK
modifications: Fab
Ka (1/MS): 9.08E+05 1/MS
Kd: 0.000341 s⁻¹

Source: patent US10927178B2, “Anti-CXCR4 antibodies and antibody-drug conjugates” (PFIZER INC., priority 2013, dated 2021)
